B1: Fibulin-5 (Homo sapiens), Q9UBX5 (parent)
chain: MPGIKRILTVTILALCLPSPGNAQAQCTNGFDLDRQSGQCLDIDECRTIPEACRGDMMCVNQNGGYLCIPRTNPVYRGPYSNPYSTPYSGPYPAAAPPLSAPNYPTISRPLICRFGYQMDESNQCVDVDECATDSHQCNPTQICINTEGGYTCSCTDGYWLLEGQCLDIDECRYGYCQQLCANVPGSYSCTCNPGFTLNEDGRSCQDVNECATENPCVQTCVNTYGSFICRCDPGYELEEDGVHCSDMDECSFSEFLCQHECVNQPGTYFCSCPPGYILLDDNRSCQDINECEHRNHTCNLQQTCYNLQGGFKCIDPIRCEEPYLRISDNRCMCPAENPGCRDQPFTILYRDMDVVSGRSVPADIFQMQATTRYPGAYYIFQIKSGNEGREFYMRQTGPISATLVMTRPIKGPREIQLDLEMITVNTVINFRGSSVIRLRIYVSQYPF

Variants of: B1
Details: with eln_human ELN

| Variant | effect of a mutation on the interaction |
| --- | --- |
| S227P | decreasing interaction |
| C217R | decreasing interaction |
